# From US12241890B2, “Methods for generating barcoded nucleic acid molecules using fixed cells” (10X Genomics, Inc., priority 2019, dated 2025)
# B1: Proteinase K: the protease, Proteinase K (Sigma-Aldrich, cat. #AM258) (protein, UniProt P06873 106-384, looked up)
# Proteinase K: AAQTNAPWGLARISSTSPGTSTYYYDESAGQGSCVYVIDTGIEASHPEFEGRAQMVKTYYYSSRDGNGHGTHCAGTVGSRTYGVAKKTQLFGVKVLDDNGSGQYSTIIAGMDFVASDKNNRNCPKGVVASLSLGGGYSSSVNSAAARLQSSGVMVAVAAGNNNADARNYSPASEPSVCTVGASDRYDRRSSFSNYGSVLDIFGPGTSILSTWIGGSTRSISGTSMATPHVAGLAAYLMTLGKTTAASACRYIADTANKGDLSNIPFGTVNLLAYNNYQA
# B2: Subtilisin A: protease Subtilisin A from Bacillus licheniformis (Sigma-Aldrich, cat. #P5380) (protein, UniProt P00780 106-379, looked up)
# Subtilisin Carlsberg: AQTVPYGIPLIKADKVQAQGFKGANVKVAVLDTGIQASHPDLNVVGGASFVAGEAYNTDGNGHGTHVAGTVAALDNTTGVLGVAPSVSLYAVKVLNSSGSGSYSGIVSGIEWATTNGMDVINMSLGGASGSTAMKQAVDNAYAKGVVVVAAAGNSGSSGNTNTIGYPAKYDSVIAVGAVDSNSNRASFSSVGAELEVMAPGAGVYSTYPTNTYATLNGTSMASPHVAGAAALILSKHPNLSASQVRNRLSSTATYLGSSFYYGKGLINVEAAAQ
# Columns and labels:
# Type in all cases: cell-based
# [1] = test system: PFA-fixed Jurkats cells; assay: RNA yield and DV200 from PFA-fixed Jurkats after Proteinase K with or without compounds (1) and/or (8) (Example 5); settings: 4% PFA-fixed Jurkats, 53° C./45 min
# Protocol: A. Protease preparation: A stock solution of 20 mg/mL Proteinase K (Sigma-Aldrich, cat. #_AM258) was stored at −20° C.
# (§1) B. Un-fixing agent stock solutions: A stock solution of the un-fixing agent of 100 mM compound (1) in 30 mM Tris-HCl, 1 mM EDTA, pH 6.8, was prepared and stored at room temperature. A stock solution of the un-fixing agent of 100 mM compound (8) in 30 mM Tris-HCl, 1 mM EDTA, pH 6.8, was prepared and stored at room temperature.
# (§2) C. Fixed cell preparation: Dissociated single cells (Jurkats) were pelleted by 400 g centrifugation for 5 minutes and the supernatant removed. A fixing reagent solution of 4% PFA in PBS with 0.2 U/μL Qiagen RNAse Inhibitor (Qiagen, cat. #129916) was added to the pelleted cells and the mixture incubated at 4° C. overnight. The resulting fixed cells were quenched with 10% FBS in PBS and spun down for 5 minutes at 500 g, 4° C. 150,000 fixed cells were washed once in PBS then resuspended in 100 μL, 30 mM Tris-HCL, 1 mM EDTA, pH 6.8.
# D. Cell un-fixing/protease treatment: RNAse Inhibitor was added to the fixed cell solution together with one of the following: (a) 0.1 mg/mL Proteinase K protease; (b) 0.2 mg/mL Proteinase K protease; (c) 0.4 mg/mL Proteinase K protease; (d) 0.2 mg/mL Proteinase K protease and 50 mM compound (1); (e) 0.4 mg/mL Proteinase K protease and 50 mM compound (1); (f) 0.2 mg/mL Proteinase K protease and 50 mM compound (8); (g) 0.4 mg/mL Proteinase K protease and 50 mM compound (8); (h) 0.2 mg/mL Proteinase K protease and 25 mM compound (8) and 25 mM compound (1); or (i) 0.4 mg/mL Proteinase K protease and 25 mM compound (8) and 25 mM compound (1). The fixed cell solutions treated with Proteinase K protease and with or without the un-fixing agents of compounds (1) and/or (8) were allowed to incubate at 53° C. for 45 min. The resulting cell solutions were spun down for 5 minutes at 500 g, 4° C., and the supernatant and pellet fractions were collected separately.
# (§3) E. RNA quantitation: RNA extraction of the collected fractions was carried out using Qiagen 96 Kit (Qiagen, cat. #74181), bulk RNA sequencing, and/or single cell 3′ sequencing. Control samples of fresh cells, fresh cells with un-fixing conditions, and fixed cells without un-fixing treatment were also prepared and RNA extracted. RNA yield was assessed by Qubit HS Assay (Q32855) and yield and DV200 quality metric was assessed by Agilent 4200 High Sensitivity ScreenTape (5067-5579).
# [2] = test system: PFA-fixed Jurkats cells; assay: Bulk un-fixing, then single-cell partition barcoding, 3'-RT and cDNA electropherogram (Example 7); settings: Fresh cells partitioned with the RT assay reagent mix and the protease
# Protocol: A. Protease preparation: A stock solution of 20 mg/mL Proteinase K (Sigma-Aldrich, cat. #AM258) was stored at −20° C.
# B. Un-fixing agent of compound (8) stock solutions: A stock solution of the un-fixing agent of 100 mM compound (8) in 30 mM Tris-HCl, 1 mM EDTA, pH 6.8, was prepared and stored at room temperature.
# as §2
# D. Cell un-fixing/protease treatment: RNAse Inhibitor was added to the fixed cell solution together with 0.1 mg/mL Proteinase K and 50 mM compound (8). The fixed cell solution treated with the protease and compounds (8) were allowed to incubate at 53° C. for 45 min. The resulting cell solutions were spun down for 5 minutes at 500 g, 4° C., and the supernatant and pellet fractions were collected separately. […]
# [3] = test system: PFA-fixed Jurkats cells; assay: RNA yield and DV200 from PFA-fixed Jurkats after Subtilisin A with or without compound (1) (Example 2); settings: 4% PFA-fixed Jurkats, 50 mM compound (1) where present
# Protocol: Materials and Methods: A protease stock solution of 100 mg/ml Subtilisin A from Bacillus licheniformis (Sigma-Aldrich, cat. #P5380) was prepared in H2O and stored at −20° C. A stock solution of the un-fixing agent of 100 mM compound (1) in 30 mM Tris-HCl, 1 mM EDTA, pH 6.8, was prepared and stored at room temperature. Dissociated single cells (Jurkats) were pelleted by 400 g centrifugation for 5 minutes and the supernatant removed. A fixing reagent solution of 4% PFA in PBS with 0.2 U/μL Qiagen RNAse Inhibitor (Qiagen, cat. #129916) was added to the pelleted cells and the mixture incubated at 4° C. overnight. The resulting fixed cells were quenched with 10% FBS in PBS and spun down for 5 minutes at 500 g, 4° C. 150,000 fixed cells were washed once in PBS then resuspended in 100 μL, 30 mM Tris-HCL, 1 mM EDTA, pH 6.8. RNAse Inhibitor was added to the fixed cell solution together with one of the following: (a) 5 mg/mL Subtilisin A; or (b) 5 mg/mL Subtilisin A and 50 mM compound (1). The fixed cell solution with Subtilisin A protease and with or without the un-fixing agent of compound (1) was allowed to incubate at 8° C. for 2 hours, followed by 15 minutes at 70° C. shaking continuously at 300 rpm on an Eppendorf Thermomixer. The resulting cell solutions were spun down for 5 minutes at 500 g, 4° C., and the supernatant and pellet fractions were collected separately. RNA extraction of the collected fractions was carried out using Qiagen 96 Kit (Qiagen, cat. #74181), bulk RNA sequencing, and/or single cell 3′ sequencing. Control samples of fresh cells, fresh cells with un-fixing conditions, and fixed cells without un-fixing treatment were also prepared and RNA extracted. RNA yield was assessed by Qubit HS Assay (Q32855) and yield and DV200 quality metric was assessed by Agilent 4200 High Sensitivity ScreenTape (5067-5579).
# [4] = test system: PFA-fixed Jurkats cells; assay: RNA yield and DV200 from PFA-fixed Jurkats after Subtilisin A with or without compounds (1) and/or (8) (Example 4); settings: 5 mg/mL Subtilisin A
# Protocol: A. Protease preparation: A protease stock solution of 100 mg/ml Subtilisin A from Bacillus licheniformis (Sigma-Aldrich, cat. #P5380) was prepared in H2O and stored at −20° C.
# as §1, §2
# D. Cell un-fixing/protease treatment: RNAse Inhibitor was added to the fixed cell solution together with one of the following: (a) 5 mg/mL Subtilisin A protease; (b) 5 mg/mL Subtilisin A protease and 50 mM compound (1); (c) 5 mg/mL Subtilisin A protease and 50 mM compound (8); (d) 5 mg/mL Subtilisin A protease and 25 mM compound (8) and 25 mM compound (1).
# The fixed cell solutions treated with Subtilisin A protease and with or without the un-fixing agents of compounds (1) and/or (8) were allowed to incubate under one of the following conditions: (1) 8° C. for 2 hours; (2) 8° C. for 2 hours, followed by 15 minutes at 70° C. shaking continuously at 300 rpm on an Eppendorf Thermomixer; (3) 53° C. for 45 min; or (4) 53° C. for 45 min followed by 15 minutes at 70° C. shaking continuously at 300 rpm on an Eppendorf Thermomixer. The resulting cell solutions were spun down for 5 minutes at 500 g, 4° C., and the supernatant and pellet fractions were collected separately.
# as §3
# [5] = Proteinase K at 0.2 mg/mL, un-fixing agent 50 mM (25 mM each in combination)
# [6] = Proteinase K at 0.4 mg/mL, un-fixing agent 50 mM (25 mM each in combination)
# [7] = 5 mg/mL Subtilisin A, 8° C./2 hr
# [8] = un-fixing agent 50 mM (25 mM each in combination), 8° C./2 hr then 70° C./15 min
# [9] = un-fixing agent 50 mM (25 mM each in combination), 53° C./45 min
molecule,measurement,setting,value
B1,"Pellet Qubit Avg (SD), RNA yield",[1]; Proteinase K at 0.1 mg/mL,1350
same,"Pellet Tapestation Avg (SD), RNA yield",[1]; Proteinase K at 0.1 mg/mL,1804.5
same,"Supernatant Qubit Avg (SD), RNA yield",[1]; Proteinase K at 0.1 mg/mL,321.3
same,"Supernatant Tapestation Avg (SD), RNA yield",[1]; Proteinase K at 0.1 mg/mL,152.55
same,"Pellet Qubit Avg (SD), RNA yield",[1]; [5],107.82
same,"Pellet Tapestation Avg (SD), RNA yield",[1]; [5],127.8
same,"Supernatant Qubit Avg (SD), RNA yield",[1]; [5],251.1
same,"Supernatant Tapestation Avg (SD), RNA yield",[1]; [5],121.05
same,"Pellet Qubit Avg (SD), RNA yield",[1]; [6],106.2
same,"Pellet Tapestation Avg (SD), RNA yield",[1]; [6],76.725
same,"Supernatant Qubit Avg (SD), RNA yield",[1]; [6],266.4
same,"Supernatant Tapestation Avg (SD), RNA yield",[1]; [6],125.55
same,cDNA electropherogram profile from single-cell 3'-RT (FIG. 11B),[2],no mound profile
B2,"Pellet Qubit Avg (SD), RNA yield",[3]; [7],21
same,"Pellet Tapestation Avg (SD), RNA yield",[3]; [7],21
same,"Supernatant Tapestation Avg (SD), RNA yield",[3]; [7],8
same,RNA recovery relative to fresh cells,"[3]; Subtilisin A, 2 h at 8° C.",about 7%
same,"Pellet Qubit Avg (SD), RNA yield",[4]; 8° C./2 hr,108.4
same,"Pellet Tapestation Avg (SD), RNA yield",[4]; 8° C./2 hr,49
same,"Supernatant Qubit Avg (SD), RNA yield",[4]; 8° C./2 hr,0
same,"Pellet Qubit Avg (SD), RNA yield",[4]; [8],106
same,"Pellet Tapestation Avg (SD), RNA yield",[4]; [8],58
same,"Supernatant Qubit Avg (SD), RNA yield",[4]; [8],398
same,"Supernatant Tapestation Avg (SD), RNA yield",[4]; [8],231
same,"Pellet Qubit Avg (SD), RNA yield",[4]; [9],144
same,"Pellet Tapestation Avg (SD), RNA yield",[4]; [9],244
same,"Supernatant Qubit Avg (SD), RNA yield",[4]; [9],245
same,"Supernatant Tapestation Avg (SD), RNA yield",[4]; [9],252
